{"source": "paper PMC10600506", "about": "“A potent and broad‐spectrum neutralizing nanobody for SARS‐CoV‐2 viruses, including all major Omicron strains” (MedComm, 2023)", "binders": {"B1": {"name": "Nb24 (VHH)", "VHH": "AVQLQASGGGFVQPGGSLRLSCAASGHWPWTGFMGWFRQAPGKEREFVSAIVEYGWPTYYADSVKGRFTISRDNSKNTVYLQMNSLRAEDTATYYCAIAGLIAPEFEQMPVYWGQGTQVTVSS"}, "B2": {"name": "Nb8 (VHH)", "VHH": "AVQLQASGGGFVQPGGSLRLSCAASGILGTNTWMGWFRQAPGKEREFVSAINYWTEPEYYADSVKGRFTISRDNSKNTVYLQMNSLRAEDTATYYCAQQNMDLNFDVFAWEYWGQGTQVTVSS"}, "B3": {"name": "Nb26 (VHH)", "VHH": "AVQLQASGGGFVQPGGSLRLSCAASGNYYPFTFMGWFRQAPGKEREFVSAIVTDYNKNYYADSVKGRFTISRDNSKNTVYLQMNSLRAEDTATYYCAYQDHSLIVESSGHMYWGQGTQVTVSS"}}}
{"target": "SARS-CoV-2 Omicron BA.1 Spike receptor-binding domain (SARS-CoV-2 Omicron BA.1, strain, biotin on the Avi tag (for phage screening and BLI); not biotinylated for crystallisation)"}
{"binder": "B1", "binding result": "binds"}
{"binder": "B2", "binding result": "binds"}
{"binder": "B3", "binding result": "binds"}
